{
  "source": "patent US20230227580A1",
  "about": "“ANTI-VWF ANTIBODIES AND USES THEREOF” (MONASH UNIVERSITY, priority 2020, published 2023)",
  "key": {"[1]": {"tested_on": "VWF-GPIbα bond strength (platelets rolling on VWF-collagen III)", "experiment": "Platelet rolling velocity on collagen III bound VWF in stenotic or straight microfluidic channels", "format": "cell-based, human", "conditions": "scFv A1", "description": "In-house designed PDMS microfluidic chips (FIG. 1A) contained channels of 52 µm height with a footprint of 300 µm x 46 mm (used in FIG. 1) or 300 µm x 17 mm. Selected channels incorporated a semi-circular stenotic section of various lengths (600 µm, 1000 µm or 2000 µm diameter), creating 80% lumen reduction. Chips were manufactured as previously reported (Westein et al. Proceedings of the National Academy of Sciences of the United States of America. 2013 Jan 22;110(4):1357-62). The produced PDMS chips were sealed with cover slips by hydrophobic interaction and coated with collagen by perfusion of collagen solution followed by static incubation at RT for at least 1 hr. Channels were rinsed with PBS and blocked with 2% BSA. Wall shear rates of the input flow for these microchannels were approximated from volumetric flow rates by using the equation, γ = 6Q/wh2. […]\nFor experiments measuring rolling velocities, anti αllbβ3 antibody (abciximab; 20 µg ml^-1)-treated whole blood containing 0.5 µg ml^-1 DiOC6 was drawn over a collagen type III-coated surface. […] 10 second video clips of rolling platelets were recorded in the green fluorescent channel using an Olympus IX81 microscope system. Platelet rolling velocities were calculated using Diatrack v3.04 large scale particle tracking software (Vallotton et al. Microsc Microanal. 2013 Apr;19(2):451-60)."}, "[2]": {"tested_on": "thrombus formation / platelet deposition", "experiment": "Thrombus formation on collagen type I in stenosis channels (SRG versus constant shear)", "format": "cell-based, human", "conditions": "for Thrombus formation: 15 minutes of blood flow", "description": "In-house designed PDMS microfluidic chips (FIG. 1A) contained channels of 52 µm height with a footprint of 300 µm x 46 mm (used in FIG. 1) or 300 µm x 17 mm. Selected channels incorporated a semi-circular stenotic section of various lengths (600 µm, 1000 µm or 2000 µm diameter), creating 80% lumen reduction. Chips were manufactured as previously reported (Westein et al. Proceedings of the National Academy of Sciences of the United States of America. 2013 Jan 22;110(4):1357-62). The produced PDMS chips were sealed with cover slips by hydrophobic interaction and coated with collagen by perfusion of collagen solution followed by static incubation at RT for at least 1 hr. Channels were rinsed with PBS and blocked with 2% BSA. Wall shear rates of the input flow for these microchannels were approximated from volumetric flow rates by using the equation, γ = 6Q/wh2. Herein, γ is the wall shear rate (s^-1), Q the volumetric flow rate (mls^-1), w the channel with (cm) and h the channel height (cm).\nCitrated whole blood was incubated with DiOC6 (0.5 µg ml^-1) (Sigma-Aldrich Co, St. Louis, MO, USA) and drawn through microfluidic channels by a programmable syringe pump (Legato 130, KD Scientific, USA). Time-lapse z-stack images of platelet deposition were captured in multiple track, resonant scanning mode, using a Nikon A1R confocal microscope system. Platelet deposition was recorded over time (2 frames per minute) for up to 20 minutes and quantified in ImageJ using a Z-projection of the acquired signal."}, "[3]": {"molecular_target": "T1, denatured full length VWF (Homo sapiens, UniProt P04275)", "T1 construct": "Denatured full length VWF (Mybiosource, USA) was electrophoresed; purchased Mybiosource", "experiment": "Western blot of denatured VWF probed with scFv A1", "format": "binding", "conditions": "scFv A1 1 µg ml^-1; SDS-PAGE denatured VWF", "method": "Denatured full length VWF (Mybiosource, USA) was electrophoresed at 0.1, 10, 100 ng and 1 µg using 5% SDS-Polyacrylamide gel at 125 V for 90 min. The protein was transferred onto PVDF membrane at 90V for 90 min followed by incubation with 1 µg ml^-1 scFv A1 overnight and the membrane was probed with horse-radish peroxidase (HRP)-conjugated detection antibody (1:2500, Sigma).\nLater, the membrane was stripped and reprobed with 1 µg ml^-1 polyclonal sheep anti-VWF antibody (Abcam), followed by donkey anti-sheep HRP-conjugated secondary antibody (1:2500, R&D Systems, USA). Chemiluminescent detection of protein bands was done using ECL Western Blotting Substrate (ThermoFisher) and visualisation using a ChemiDoc Touch Imaging system (Bio-Rad, UK)."}, "[4]": {"molecular_target": "T2, full length VWF (Homo sapiens, UniProt P04275)", "T2 construct": "coated with purified full length VWF or isolated A1 domain", "experiment": "ELISA binding to immobilized full length VWF", "conditions": "scFv A1 5 µg ml^-1; ristocetin 0.75 mg ml^-1", "method": "(§1) ELISA wells (Thermo Fisher Scientific) were coated with purified full length VWF or isolated A1 domain at 0.1, 1 and 10 µg ml^-1 in the presence of ristocetin (0.75 mg ml^1) and blocked with 2% BSA. Next, the coated wells were incubated with 5 µg ml^-1 of scFv A1 or sheep anti-VWF antibody followed by incubation with an HRP-conjugated secondary antibody (Anti-his HRP for scFv A1, Donkey anti-sheep HRP antibody for sheep anti-VWF antibody) (1:4,000). Readings were measured at 450 nm on a BMG Optima multi-well reader."}, "[5]": {"molecular_target": "T3, isolated VWF A1 domain (Homo sapiens, UniProt P04275)", "T3 construct": "coated with purified full length VWF or isolated A1 domain", "experiment": "ELISA binding to isolated VWF A1 domain", "conditions": "scFv A1 5 µg ml^-1", "method": "as §1"}, "[6]": {"molecular_target": "T4, VWF-A1 domain (Homo sapiens, UniProt P04275)", "T4 construct": "coated with purified full length VWF or isolated A1 domain", "experiment": "BLItz bio-layer interferometry, immobilized VWF-A1 domain", "format": "binding", "conditions": "scFv-A1 20, 40 and 100 µg ml^-1", "method": "Bio-layer Interferometry was performed on a BIItz System (Pall Forte Bio, USA). Protein-A biosensors were hydrated for 30 minutes in PBS-Tween (0.05%) and loaded with VWF-A1 domain (130 µg ml^-1). Remaining binding sites were blocked by exposure to a polyclonal mouse IgG for 5 min. Sequential adhesion of scFv-A1 at 0, 20, 40 and 100 µg ml^-1 was monitored for 5 min per concentration. Real time visualisation of binding interactions between scFv A1 and full length VWF/A1 domain was performed using the BLItz Pro software. Traces were manually baseline aligned and corrected for control binding (0 µg ml^-1 scFv-A1)."}, "[7]": {"tested_on": "platelet aggregation / thrombus formation", "experiment": "Progressive shear gradient flow model: whole blood over collagen type I patches in straight channels", "format": "cell-based, human", "conditions": "scFv A1 5 µg ml^-1, 1,000 s^-1", "description": "Fluid dynamics were simulated with a COMSOL Multiphysics 4.2 laminar flow module applied to three-dimensional meshes. For all simulations, no-slip boundary conditions and Newtonian fluids were assumed. To obtain meshes from the plain channel geometries, channel dimensions were taken from the original computer-aided design (CAD) files and reconstructed in COMSOL. To obtain meshes from platelet aggregate geometries, confocal fluorescence microscopy image z-stacks of labeled platelets were processed in ImageJ. Each image in a z-stack was converted into a binary image by thresholding, and an x-y heightmap was constructed by summing all binary data in a z-stack followed by multiplying the result with the height of the original z-stack as documented by the confocal microscope. […] Input flow parameters were set based on pump settings as used in the experiments, and were adjusted to account for the reduced width of the fluorescence aggregate meshes compared to the full channel geometries. […]\nCitrated whole blood was incubated with DiOC6 (0.5 µg ml^-1) (Sigma-Aldrich Co, St. Louis, MO, USA) and drawn through microfluidic channels by a programmable syringe pump (Legato 130, KD Scientific, USA). […] Platelet deposition was recorded over time (2 frames per minute) for up to 20 minutes and quantified in ImageJ using a Z-projection of the acquired signal."}},
  "note": "“Also recorded” adds a separate entry of the source.",
  "data": [
    {"molecule": "scFv A1: single chain antibody combining variable heavy chain of mAb CR1 with variable light chain of mAb CR2; VH SEQ ID NO: 11, VL SEQ ID NO: 10 (antibody, V domains shown, scFv linker; Mouse) VH: QVQLQQPGAELVRPGASVKLSCKASGYSFTNYWMSWVKQRPGQGLEWIGMIHPSDSDTRLNQKFKDKATLTVDKSSSTAYMQLSSPTSEDSAGLLLCKKFEGWLPVLLGPRHHSHSLLS VL: DIELTQSPASLAVSLGQSYRASCKSVSTSGYSYMHWNQQKPGQPPRLLIYLVSNLESGVPARFSGSGSGTDFTLNIHPVEEEDAATYYCQHIRELTRSEGDQAEINR", "values": [
      {"measurement": "Effect on platelet rolling velocities", "setting": "[1]; areas other than the stenosis apex", "result": "largely unaffected"},
      {"measurement": "Platelet rolling velocity", "setting": "[1]; stenosis apex, control 4.41±0.1, p=0.038", "result": "4.6±0.1", "unit": "µm s^-1"},
      {"measurement": "Thrombus formation", "setting": "[2]; 2000 s^-1 constant shear", "result": "no effect"},
      {"measurement": "Thrombus formation", "setting": "[2]; SRGs (187-1,500 s^-1)", "result": "inhibited thrombus formation"},
      {"measurement": "Thrombus formation", "setting": "[2]; SRGs (300-2,000 s^-1)", "result": "inhibited thrombus formation"},
      {"measurement": "Inhibition of thrombus formation", "setting": "[2]; scFv A1 2.5 µg ml^-1", "result": "absent"},
      {"measurement": "Inhibition of thrombus formation", "setting": "[2]; scFv A1 5 µg ml^-1", "result": "showed inhibition"},
      {"measurement": "Relative thrombus growth (ratio of intensity in the last frame over the first frame)", "setting": "[2]; scFv A1 5 µg ml^-1, SRG, 1,500 s^-1 in stenosis apex, control 1.58±0.22, p<0.001", "result": "1.2±0.09"},
      {"measurement": "Relative thrombus growth (ratio of intensity in the last frame over the first frame)", "setting": "[2]; scFv A1 5 µg ml^-1, SRG, 2,000 s^-1 in stenosis apex, control 1.85±0.28, p<0.0001", "result": "1.17±0.07"},
      {"measurement": "Relative thrombus growth (ratio of intensity in the last frame over the first frame)", "setting": "[2]; scFv A1 5 µg ml^-1, constant shear 1,500 s^-1, 10 minutes, other value of the pair 1.48±0.16", "result": "1.62±0.2"},
      {"measurement": "Relative thrombus growth (ratio of intensity in the last frame over the first frame)", "setting": "[2]; scFv A1 5 µg ml^-1, constant shear 2,000 s^-1, 10 minutes, other value of the pair 2.11±0.23", "result": "1.9±0.36"},
      {"measurement": "Effect on platelet deposition", "setting": "[2]; scFv A1 5 µg ml^-1, constant shear, straight channel sections", "result": "no effect"},
      {"measurement": "Inhibition of thrombus formation", "setting": "[2]; scFv A1 10 µg ml^-1", "result": "showed inhibition"},
      {"measurement": "Complex formation with denatured VWF", "setting": "[3]", "result": "did not show any complex formation"},
      {"measurement": "Binding to immobilized full length VWF", "setting": "[4]", "result": "did not bind"},
      {"measurement": "Binding to isolated VWF A1 domain", "setting": "[5]", "result": "did not bind"},
      {"measurement": "Binding to immobilized VWF-A1 domain", "setting": "[6]", "result": "did not observe any binding"},
      {"measurement": "Platelet aggregation in the rear area of the collagen patch", "setting": "[7]; constant shear, SRGs absent", "result": "did not reduce; also recorded: not at the rear"},
      {"measurement": "Platelet aggregation at the front area of the collagen patch", "setting": "[7]; local shear gradient", "result": "selectively attenuated; also recorded: inhibited platelet aggregation only at the front of the patch"}
    ]}
  ]
}
